Assay results from patent publication US20250084142A1 (INTARCIA THERAPEUTICS, published 2025).
Starred links: 1 amine or outer side, 2 acyl side, 3 side chain; linkers in the order of their positions; H or OH if unused. Non-standard residues stand in square brackets, D forms with d. Groups on a side chain read outwards from the residue. No end group written: not given here. *: point of attachment. dpeg = —[CO(CH2)O(CH2)2O(CH2)NH]— spacer, O=C(COCCOCN[*:1])[*:2]; C20 diacid = O=C(O)CCCCCCCCCCCCCCCCCCC(=O)*; γGlu = O=C(O)[C@H](CCC(=O)[*:2])N[*:1]; hSer = N[C@@H](CCO)C(=O)O; αMeS = C[C@](N)(CO)C(=O)O

T1: NPY5R
T1 sequence (Q15761 1-445, species assumed, looked up): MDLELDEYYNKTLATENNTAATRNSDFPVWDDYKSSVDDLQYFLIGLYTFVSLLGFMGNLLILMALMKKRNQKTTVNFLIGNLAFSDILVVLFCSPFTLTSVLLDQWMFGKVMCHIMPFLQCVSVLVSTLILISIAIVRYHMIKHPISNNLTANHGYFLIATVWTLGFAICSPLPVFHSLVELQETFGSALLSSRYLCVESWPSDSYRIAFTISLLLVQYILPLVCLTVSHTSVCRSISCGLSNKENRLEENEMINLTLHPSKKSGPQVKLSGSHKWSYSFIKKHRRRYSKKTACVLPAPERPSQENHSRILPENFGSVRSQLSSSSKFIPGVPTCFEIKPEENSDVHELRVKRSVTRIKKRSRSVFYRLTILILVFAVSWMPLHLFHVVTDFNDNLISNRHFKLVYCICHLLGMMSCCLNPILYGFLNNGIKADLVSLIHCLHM

T2: NPY2R
T2 sequence (P49146 1-381, species assumed, looked up): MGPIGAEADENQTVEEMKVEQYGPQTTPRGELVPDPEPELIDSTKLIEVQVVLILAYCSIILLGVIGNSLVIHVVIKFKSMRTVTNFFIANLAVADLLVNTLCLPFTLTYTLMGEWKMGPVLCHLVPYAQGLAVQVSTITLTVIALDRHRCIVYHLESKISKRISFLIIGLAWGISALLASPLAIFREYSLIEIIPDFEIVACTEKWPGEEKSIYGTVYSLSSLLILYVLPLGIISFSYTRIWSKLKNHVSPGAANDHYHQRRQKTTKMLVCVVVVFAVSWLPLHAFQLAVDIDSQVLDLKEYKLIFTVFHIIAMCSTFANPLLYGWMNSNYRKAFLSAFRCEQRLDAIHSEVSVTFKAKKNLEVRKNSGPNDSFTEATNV

B1: Compound A28 (peptide)
peptide: PKPEKPGKDASPKEWNRYYK([γGlu-γGlu-C20 diacid])DLRHYLNWLTRQRF-NH2
modifications: N-terminus assumed
SMILES: CC(C)C[C@H](NC(=O)[C@H](CC(=O)O)NC(=O)[C@H](CCCCNC(=O)CC[C@H](NC(=O)CC[C@H](NC(=O)CCCCCCCCCCCCCCCCCCC(=O)O)C(=O)O)C(=O)O)NC(=O)[C@H](Cc1ccc(O)cc1)NC(=O)[C@H](Cc1ccc(O)cc1)NC(=O)[C@H](CCCNC(=N)N)NC(=O)[C@H](CC(N)=O)NC(=O)[C@H](Cc1c[nH]c2ccccc12)NC(=O)[C@H](CCC(=O)O)NC(=O)[C@H](CCCCN)NC(=O)[C@@H]1CCCN1C(=O)[C@H](CO)NC(=O)[C@H](C)NC(=O)[C@H](CC(=O)O)NC(=O)[C@H](CCCCN)NC(=O)CNC(=O)[C@@H]1CCCN1C(=O)[C@H](CCCCN)NC(=O)[C@H](CCC(=O)O)NC(=O)[C@@H]1CCCN1C(=O)[C@H](CCCCN)NC(=O)[C@@H]1CCCN1)C(=O)N[C@@H](CCCNC(=N)N)C(=O)N[C@@H](Cc1c[nH]cn1)C(=O)N[C@@H](Cc1ccc(O)cc1)C(=O)N[C@@H](CC(C)C)C(=O)N[C@@H](CC(N)=O)C(=O)N[C@@H](Cc1c[nH]c2ccccc12)C(=O)N[C@@H](CC(C)C)C(=O)N[C@H](C(=O)N[C@@H](CCCNC(=N)N)C(=O)N[C@@H](CCC(N)=O)C(=O)N[C@@H](CCCNC(=N)N)C(=O)N[C@@H](Cc1ccccc1)C(N)=O)[C@@H](C)O
B2: Compound A17 (peptide)
peptide: PKPEAPGK([γGlu-dpeg-dpeg-γGlu-C20 diacid])DASPEEWNRYYADLRHYLNWLTRQRF-NH2
modifications: N-terminus assumed
SMILES: CC(C)C[C@H](NC(=O)[C@H](CC(=O)O)NC(=O)[C@H](C)NC(=O)[C@H](Cc1ccc(O)cc1)NC(=O)[C@H](Cc1ccc(O)cc1)NC(=O)[C@H](CCCNC(=N)N)NC(=O)[C@H](CC(N)=O)NC(=O)[C@H](Cc1c[nH]c2ccccc12)NC(=O)[C@H](CCC(=O)O)NC(=O)[C@H](CCC(=O)O)NC(=O)[C@@H]1CCCN1C(=O)[C@H](CO)NC(=O)[C@H](C)NC(=O)[C@H](CC(=O)O)NC(=O)[C@H](CCCCNC(=O)CC[C@H](NC(=O)COCCOCNC(=O)COCCOCNC(=O)CC[C@H](NC(=O)CCCCCCCCCCCCCCCCCCC(=O)O)C(=O)O)C(=O)O)NC(=O)CNC(=O)[C@@H]1CCCN1C(=O)[C@H](C)NC(=O)[C@H](CCC(=O)O)NC(=O)[C@@H]1CCCN1C(=O)[C@H](CCCCN)NC(=O)[C@@H]1CCCN1)C(=O)N[C@@H](CCCNC(=N)N)C(=O)N[C@@H](Cc1c[nH]cn1)C(=O)N[C@@H](Cc1ccc(O)cc1)C(=O)N[C@@H](CC(C)C)C(=O)N[C@@H](CC(N)=O)C(=O)N[C@@H](Cc1c[nH]c2ccccc12)C(=O)N[C@@H](CC(C)C)C(=O)N[C@H](C(=O)N[C@@H](CCCNC(=N)N)C(=O)N[C@@H](CCC(N)=O)C(=O)N[C@@H](CCCNC(=N)N)C(=O)N[C@@H](Cc1ccccc1)C(N)=O)[C@@H](C)O
B3: Compound A18 (peptide)
peptide: PKPEAPG[dK]([γGlu-dpeg-dpeg-γGlu-C20 diacid])DASPEEWNRYYADLRHYLNWLTRQRF-NH2
modifications: N-terminus assumed
SMILES: CC(C)C[C@H](NC(=O)[C@H](CC(=O)O)NC(=O)[C@H](C)NC(=O)[C@H](Cc1ccc(O)cc1)NC(=O)[C@H](Cc1ccc(O)cc1)NC(=O)[C@H](CCCNC(=N)N)NC(=O)[C@H](CC(N)=O)NC(=O)[C@H](Cc1c[nH]c2ccccc12)NC(=O)[C@H](CCC(=O)O)NC(=O)[C@H](CCC(=O)O)NC(=O)[C@@H]1CCCN1C(=O)[C@H](CO)NC(=O)[C@H](C)NC(=O)[C@H](CC(=O)O)NC(=O)[C@@H](CCCCNC(=O)CC[C@H](NC(=O)COCCOCNC(=O)COCCOCNC(=O)CC[C@H](NC(=O)CCCCCCCCCCCCCCCCCCC(=O)O)C(=O)O)C(=O)O)NC(=O)CNC(=O)[C@@H]1CCCN1C(=O)[C@H](C)NC(=O)[C@H](CCC(=O)O)NC(=O)[C@@H]1CCCN1C(=O)[C@H](CCCCN)NC(=O)[C@@H]1CCCN1)C(=O)N[C@@H](CCCNC(=N)N)C(=O)N[C@@H](Cc1c[nH]cn1)C(=O)N[C@@H](Cc1ccc(O)cc1)C(=O)N[C@@H](CC(C)C)C(=O)N[C@@H](CC(N)=O)C(=O)N[C@@H](Cc1c[nH]c2ccccc12)C(=O)N[C@@H](CC(C)C)C(=O)N[C@H](C(=O)N[C@@H](CCCNC(=N)N)C(=O)N[C@@H](CCC(N)=O)C(=O)N[C@@H](CCCNC(=N)N)C(=O)N[C@@H](Cc1ccccc1)C(N)=O)[C@@H](C)O
B4: Compound A29 (peptide)
peptide: PKPEKPGEDASPKEWNRYYK([γGlu-γGlu-C20 diacid])DLRHYLNWLTRQRF-NH2
modifications: N-terminus assumed
SMILES: CC(C)C[C@H](NC(=O)[C@H](CC(=O)O)NC(=O)[C@H](CCCCNC(=O)CC[C@H](NC(=O)CC[C@H](NC(=O)CCCCCCCCCCCCCCCCCCC(=O)O)C(=O)O)C(=O)O)NC(=O)[C@H](Cc1ccc(O)cc1)NC(=O)[C@H](Cc1ccc(O)cc1)NC(=O)[C@H](CCCNC(=N)N)NC(=O)[C@H](CC(N)=O)NC(=O)[C@H](Cc1c[nH]c2ccccc12)NC(=O)[C@H](CCC(=O)O)NC(=O)[C@H](CCCCN)NC(=O)[C@@H]1CCCN1C(=O)[C@H](CO)NC(=O)[C@H](C)NC(=O)[C@H](CC(=O)O)NC(=O)[C@H](CCC(=O)O)NC(=O)CNC(=O)[C@@H]1CCCN1C(=O)[C@H](CCCCN)NC(=O)[C@H](CCC(=O)O)NC(=O)[C@@H]1CCCN1C(=O)[C@H](CCCCN)NC(=O)[C@@H]1CCCN1)C(=O)N[C@@H](CCCNC(=N)N)C(=O)N[C@@H](Cc1c[nH]cn1)C(=O)N[C@@H](Cc1ccc(O)cc1)C(=O)N[C@@H](CC(C)C)C(=O)N[C@@H](CC(N)=O)C(=O)N[C@@H](Cc1c[nH]c2ccccc12)C(=O)N[C@@H](CC(C)C)C(=O)N[C@H](C(=O)N[C@@H](CCCNC(=N)N)C(=O)N[C@@H](CCC(N)=O)C(=O)N[C@@H](CCCNC(=N)N)C(=O)N[C@@H](Cc1ccccc1)C(N)=O)[C@@H](C)O
B5: Compound A27 (peptide)
peptide: PKPEKPGK([γGlu-γGlu-C20 diacid])DASPKEWNRYYKDLRHYLNWLTRQRF-NH2
modifications: N-terminus assumed
SMILES: CC(C)C[C@H](NC(=O)[C@H](CC(=O)O)NC(=O)[C@H](CCCCN)NC(=O)[C@H](Cc1ccc(O)cc1)NC(=O)[C@H](Cc1ccc(O)cc1)NC(=O)[C@H](CCCNC(=N)N)NC(=O)[C@H](CC(N)=O)NC(=O)[C@H](Cc1c[nH]c2ccccc12)NC(=O)[C@H](CCC(=O)O)NC(=O)[C@H](CCCCN)NC(=O)[C@@H]1CCCN1C(=O)[C@H](CO)NC(=O)[C@H](C)NC(=O)[C@H](CC(=O)O)NC(=O)[C@H](CCCCNC(=O)CC[C@H](NC(=O)CC[C@H](NC(=O)CCCCCCCCCCCCCCCCCCC(=O)O)C(=O)O)C(=O)O)NC(=O)CNC(=O)[C@@H]1CCCN1C(=O)[C@H](CCCCN)NC(=O)[C@H](CCC(=O)O)NC(=O)[C@@H]1CCCN1C(=O)[C@H](CCCCN)NC(=O)[C@@H]1CCCN1)C(=O)N[C@@H](CCCNC(=N)N)C(=O)N[C@@H](Cc1c[nH]cn1)C(=O)N[C@@H](Cc1ccc(O)cc1)C(=O)N[C@@H](CC(C)C)C(=O)N[C@@H](CC(N)=O)C(=O)N[C@@H](Cc1c[nH]c2ccccc12)C(=O)N[C@@H](CC(C)C)C(=O)N[C@H](C(=O)N[C@@H](CCCNC(=N)N)C(=O)N[C@@H](CCC(N)=O)C(=O)N[C@@H](CCCNC(=N)N)C(=O)N[C@@H](Cc1ccccc1)C(N)=O)[C@@H](C)O

Molecular target: T1, NPY5R
Assay: cell-based or functional assay

Row | Binder | NPY5R pEC50
1 | PKPEAPGKDASPEEWNRYYK([γGlu-dpeg-dpeg-γGlu-C20 diacid])DLRHYLNWLTRQRF-NH2 [Compound A16] | 9.1 -Log(EC50, M)
2 | PKPEAPGK([γGlu-γGlu-C20 diacid])DASPEEWTRYYKDLRHYLNWLTRQRF-NH2 [Compound A26] | 8.5 -Log(EC50, M)
3 | B1 | 8.8 -Log(EC50, M)
4 | PKPEAPG[dK]([γGlu-γGlu-C20 diacid])DASPEEWNRYYADLRHYLNWLTRQRF-NH2 [Compound A15] | 8 -Log(EC50, M)
5 | B2 | 8.7 -Log(EC50, M)
6 | PKPEAPGK([γGlu-γGlu-C20 diacid])DASPEEW[hSer]RYYKDLRHYLNWLTRQRF-NH2 [Compound A30] | 8.5 -Log(EC50, M)
7 | PKPEAPGK([γGlu-γGlu-C20 diacid])DASPEEW[αMeS]RYYKDLRHYLNWLTRQRF-NH2 [Compound A31] | 8.7 -Log(EC50, M)
8 | B3 | 9.3 -Log(EC50, M)
9 | PKPEAPGK([γGlu-γGlu-C20 diacid])DASPEEWSRYYKDLRHYLNWLTRQRF-NH2 [Compound A25] | 8.4 -Log(EC50, M)
10 | B4 | 9 -Log(EC50, M)
11 | B5 | 8.9 -Log(EC50, M)

Molecular target: T2, NPY2R
Assay: cell-based or functional assay

Row | Binder | NPY2R pEC50
12 | PKPEAPGKDASPEEWNRYYK([γGlu-dpeg-dpeg-γGlu-C20 diacid])DLRHYLNWLTRQRF-NH2 [Compound A16] | 10.2 -Log(EC50, M)
13 | PKPEAPGK([γGlu-γGlu-C20 diacid])DASPEEWTRYYKDLRHYLNWLTRQRF-NH2 [Compound A26] | 10.7 -Log(EC50, M)
14 | B1 | 10.5 -Log(EC50, M)
15 | PKPEAPG[dK]([γGlu-γGlu-C20 diacid])DASPEEWNRYYADLRHYLNWLTRQRF-NH2 [Compound A15] | 10.2 -Log(EC50, M)
16 | B2 | 10.2 -Log(EC50, M)
17 | PKPEAPGK([γGlu-γGlu-C20 diacid])DASPEEW[hSer]RYYKDLRHYLNWLTRQRF-NH2 [Compound A30] | 10.3 -Log(EC50, M)
18 | PKPEAPGK([γGlu-γGlu-C20 diacid])DASPEEW[αMeS]RYYKDLRHYLNWLTRQRF-NH2 [Compound A31] | 10.4 -Log(EC50, M)
19 | B3 | 10.3 -Log(EC50, M)
20 | PKPEAPGK([γGlu-γGlu-C20 diacid])DASPEEWSRYYKDLRHYLNWLTRQRF-NH2 [Compound A25] | 10.9 -Log(EC50, M)
21 | B4 | 10.9 -Log(EC50, M)
22 | B5 | 10.7 -Log(EC50, M)
